Data as given in patent US7901879B2, “Lactoferrin in the treatment of malignant neoplasms and other hyperproliferative diseases” (Agennix Incorporated, priority 2002, dated 2011).

Tested on: IL-18
Experiment: IL-18 levels in small intestine and serum after oral rhLF or bLF (cytokine ELISA)
Type: in vivo, mice
Procedure: Recombinant human lactoferrin and bovine lactoferrin were orally administered to mice, and the production of IL-18 in the small intestine was measured.
Mice were treated for three days daily with 65 mg/kg/day of rhLF, 300 mg/kg/day of rhLF or 300 mg/kg/day of bLF. For a control, mice were only administered the pharmaceutical carrier. Twenty-four hours following administration of the LF or control for 3 days, animals were weighed and blood and serum were collected. Serum was used for cytokine ELISA assays.
Also, at these time points, animals were sacrificed and the small intestinal tissue was removed for further analysis. Small intestinal epithelium was homogenized using a lysis buffer consisting of PBS, 1% Nonidet P-40, 0.5% sodium deoxycholate, and 0.1% sodium dodecyl sulphate containing 10 μg/ml PhenylMetheylsulfonyl fluoride. Homogenate was centrifuged at 15,000 rpm for 10 minutes and the supernatant stored at −80 C. till it was tested for IL-18 levels.

[1] = oral 300 mg/kg/day for three days, 24 h after last dose
[2] = oral, rhLF at both doses, bLF 300 mg/kg/day

B1: bovine lactoferrin (protein, UniProt P24627 20-708, looked up)
Lactotransferrin: APRKNVRWCTISQPEWFKCRRWQWRMKKLGAPSITCVRRAFALECIRAIAEKKADAVTLDGGMVFEAGRDPYKLRPVAAEIYGTKESPQTHYYAVAVVKKGSNFQLDQLQGRKSCHTGLGRSAGWIIPMGILRPYLSWTESLEPLQGAVAKFFSASCVPCIDRQAYPNLCQLCKGEGENQCACSSREPYFGYSGAFKCLQDGAGDVAFVKETTVFENLPEKADRDQYELLCLNNSRAPVDAFKECHLAQVPSHAVVARSVDGKEDLIWKLLSKAQEKFGKNKSRSFQLFGSPPGQRDLLFKDSALGFLRIPSKVDSALYLGSRYLTTLKNLRETAEEVKARYTRVVWCAVGPEEQKKCQQWSQQSGQNVTCATASTTDDCIVLVLKGEADALNLDGGYIYTAGKCGLVPVLAENRKSSKHSSLDCVLRPTEGYLAVAVVKKANEGLTWNSLKDKKSCHTAVDRTAGWNIPMGLIVNQTGSCAFDEFFSQSCAPGADPKSRLCALCAGDDQGLDKCVPNSKEKYYGYTGAFRCLAEDVGDVAFVKNDTVWENTNGESTADWAKNLNREDFRLLCLDGTRKPVTEAQSCHLAVAPNHAVVSRSDRAAHVKQVLLHQQALFGKNGKNCPDKFCLFKSETKNLLFNDNTECLAKLGGRPTYEEYLGTEYVTAIANLKKCSTSPLLEACAFLTR
IL-18 Intestinal Extract % Increase Over Control (oral 300 mg/kg): 373%
IL-18 Serum % Increase Over Control (oral 300 mg/kg): −5%
IL-18 Intestinal Extract [1]: 4,515 pg
IL-18 Serum [1]: 134 pg
effect on amount of IL-18 in the intestinal extract [2]: lesser increase
effect on amount of IL-18 in the serum [2]: did not increase
